# Data published in the Human Domainome abundance scans (Beltran et al. 2025).
# ± gives the uncertainty stated by the source.
# B1: Neutrophil cytosol factor 2, residues 456 to 514; numbered along this chain, P19878 (parent)
# chain: LKKGSQVEALFSYEATQPEDLEFQEGDIILVLSKVNEEWLEGECKGKVGIFPKVFVEDC
# Variants of: B1
# Assay: abundance fitness (aPCA) (normalised: wild type 0, dead -1); higher = more abundant; growth selection in yeast, the domain comes from the species named
# Conditions: Homo sapiens
row,Variant,abundance fitness
1,V48S,-0.355 ± 0.13
2,V48D,-0.443 ± 0.17
3,V48K,0.295 ± 0.19
4,V48N,-0.334 ± 0.15
5,V48E,-0.974 ± 0.44
6,V48R,0.68 ± 0.097
7,V48W,-0.901 ± 0.49
8,V48A,0.008 ± 0.11
9,K3P,0.347 ± 0.13
10,K3D,-0.366 ± 0.24
11,K3G,-0.714 ± 0.38
12,K3Y,-0.479 ± 0.37
13,K3A,-0.483 ± 0.23
14,K3V,-0.033 ± 0.14
15,K3R,-0.397 ± 0.22
16,P52M,-0.253 ± 0.33
17,P52V,-0.598 ± 0.14
18,P52D,-0.479 ± 0.21
19,P52R,-0.918 ± 0.21
20,P52Q,-0.645 ± 0.36
21,P52L,-0.094 ± 0.12
22,P52F,-0.459 ± 0.18
23,V35Y,-0.69 ± 0.17
24,V35T,-0.808 ± 0.2

row,Variant,abundance fitness
1,V35S,-0.459 ± 0.1
2,V35C,-0.475 ± 0.13
3,V35G,-0.613 ± 0.11
4,C59H,-0.361 ± 0.22
5,C59R,-0.173 ± 0.2
6,C59F,-0.044 ± 0.14
7,C59S,-0.012 ± 0.091
8,C59V,0.402 ± 0.14
9,C59Y,-0.204 ± 0.14
10,C59I,0.153 ± 0.15
11,C59T,0.289 ± 0.13
12,D58G,0.392 ± 0.13
13,D58R,0.155 ± 0.13
14,I50G,-0.347 ± 0.12
15,I50Q,-0.659 ± 0.43
16,I50M,-0.621 ± 0.31
17,I50N,-0.821 ± 0.22
18,P18M,-0.235 ± 0.24
19,P18L,-0.801 ± 0.18
20,D27K,-0.365 ± 0.28
21,D27Q,-0.212 ± 0.27
22,D27C,-0.301 ± 0.13
23,D27M,-0.377 ± 0.26
24,L32V,-0.297 ± 0.1

row,Variant,abundance fitness
1,L32H,0.166 ± 0.1
2,L32E,-0.299 ± 0.19
3,L32R,0.564 ± 0.079
4,L32K,0.194 ± 0.15
5,K2F,0.093 ± 0.48
6,K2W,-0.109 ± 0.27
7,E22S,0.284 ± 0.068
8,E22H,-0.191 ± 0.22
9,E22Q,0.395 ± 0.46
10,E37S,-0.527 ± 0.12
11,E37R,-0.22 ± 0.11
12,E37W,-0.279 ± 0.35
13,E37D,0.069 ± 0.12
14,E37C,-0.109 ± 0.15
15,E37P,-0.903 ± 0.27
16,E37V,0.085 ± 0.099
17,E43T,-0.163 ± 0.11
18,E43L,-0.487 ± 0.15
19,E43P,-0.818 ± 0.26
20,E43M,-0.009 ± 0.17
21,K34P,-0.853 ± 0.4
22,K34Y,-0.589 ± 0.15
23,K34S,-0.37 ± 0.1
24,K34V,0.467 ± 0.071

row,Variant,abundance fitness
1,S33V,-0.091 ± 0.081
2,S33E,-0.786 ± 0.28
3,S33Y,-0.55 ± 0.15
4,S33W,-0.366 ± 0.2
5,D20K,-0.683 ± 0.38
6,D20S,-0.528 ± 0.11
7,D20G,-0.125 ± 0.092
8,L40E,-0.742 ± 0.47
9,L40H,-0.764 ± 0.25
10,L40T,-0.749 ± 0.21
11,L40Q,-0.58 ± 0.4
12,Q24L,-0.535 ± 0.17
13,Q24D,0.235 ± 0.097
14,Q24G,-0.805 ± 0.14
15,Q24K,0.047 ± 0.22
16,Q24I,-0.688 ± 0.17
17,Q24M,-0.311 ± 0.27
18,Q24R,-0.234 ± 0.1
19,Q24T,-0.257 ± 0.14
20,G26R,-0.464 ± 0.14
21,G26S,-0.457 ± 0.098
22,G26W,-0.809 ± 0.29
23,F11W,-0.392 ± 0.3
24,F11V,0.035 ± 0.14

row,Variant,abundance fitness
1,L21D,-0.323 ± 0.12
2,L21T,-0.392 ± 0.15
3,L21W,-0.457 ± 0.2
4,L21Y,-0.721 ± 0.15
5,Y13K,-0.307 ± 0.17
6,Y13F,-0.391 ± 0.12
7,Y13C,-0.432 ± 0.19
8,F51L,-0.735 ± 0.15
9,F51S,-0.328 ± 0.096
10,F51V,-0.342 ± 0.11
11,F51T,-0.165 ± 0.12
12,F51W,-0.739 ± 0.32
13,E8F,0.452 ± 0.17
14,E8R,1.16 ± 0.095
15,E8V,0.959 ± 0.091
16,E38V,-0.479 ± 0.11
17,G4P,-0.208 ± 0.25
18,G4D,-0.031 ± 0.22
19,G4W,-0.84 ± 0.41
20,G4V,-0.452 ± 0.17
21,G4Y,-0.89 ± 0.45
22,G4K,-0.193 ± 0.45
23,G4A,-0.695 ± 0.29
24,V54E,-0.124 ± 0.34

row,Variant,abundance fitness
1,V54F,-0.203 ± 0.13
2,V54I,-0.079 ± 0.13
3,V54P,-0.459 ± 0.23
4,K45G,-0.61 ± 0.16
5,K45F,-0.669 ± 0.15
6,K45V,-0.734 ± 0.17
7,K45P,-0.904 ± 0.28
8,L1Y,0.581 ± 0.32
9,L1R,0.08 ± 0.27
10,L1E,0.143 ± 0.28
11,L1M,0.035 ± 0.27
12,L1S,-0.217 ± 0.21
13,L1F,0.593 ± 0.23
14,E25C,-0.275 ± 0.14
15,E25I,-0.68 ± 0.23
16,E25K,0.711 ± 0.13
17,E25H,0.447 ± 0.31
18,E25S,-0.239 ± 0.092
19,E25L,-0.731 ± 0.17
20,W39E,-0.269 ± 0.26
21,W39C,-0.379 ± 0.099
22,W39G,-0.414 ± 0.1
23,W39I,-0.109 ± 0.091
24,A15D,-0.73 ± 0.24

row,Variant,abundance fitness
1,A15I,-0.357 ± 0.17
2,A15Y,-0.617 ± 0.19
3,A15R,-0.417 ± 0.14
4,E41V,-0.02 ± 0.091
5,E41I,0.175 ± 0.087
6,E41S,-0.28 ± 0.1
7,N36A,-0.063 ± 0.14
8,N36M,-0.43 ± 0.28
9,N36F,-0.446 ± 0.11
10,N36V,-0.686 ± 0.18
11,N36S,-0.586 ± 0.11
12,N36G,-0.103 ± 0.094
13,L10N,-0.226 ± 0.5
14,L10S,-0.789 ± 0.29
15,L10M,0.116 ± 0.33
16,L10E,-0.667 ± 0.47
17,G49N,-0.735 ± 0.15
18,G49V,-1.05 ± 0.18
19,G49R,-0.758 ± 0.2
20,G49K,0.002 ± 0.19
21,G49D,-0.478 ± 0.13
22,G49C,-0.756 ± 0.17
23,G49A,-0.59 ± 0.18
